Experimental data taken from the nanobody polyreactivity screen of Harvey et al. (2022).

Assay: yeast display, Sf9 membrane polyspecificity reagent, FACS + sequencing; frameworks hold sequencing errors
Summary of the method: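 Nanobodies from a synthetic yeast display library (Saccharomyces cerevisiae BJ5465), induced 36–48 hours with galactose, were stained 1 hour at 4 °C with 10% biotinylated, detergent-solubilized Sf9 membrane reagent, enriched on streptavidin microbeads, then FACS-sorted. Anti-HA (expression) and streptavidin (reagent binding) fluorescence set low and high (top ~1%) gates. Polyreactivity labels come from the gate of origin. Genes were colony-PCR amplified, MiSeq 2 × 250 sequenced and filtered by CDR length.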

| Sequence | polyreactivity (PSR sort gate) |
| --- | --- |
| QVQLVESGGGLVQAGGSLRLSCAASGRIFYTNAMGCYRQAPGKERELVAAIRSGGITTYADSVKGRFTISRDNAKNTVYLQMNSLKPEDTAVYYCATRILSIYSIFGAYDYWGQGTQVTVSS | low polyreactivity |
| QVQLVESGGGLVQAGGSLRLSCAASGRIFYTNAMGWSRQAPGKERELVAVISWGGDTTYYADSVKGRFTISRDNAKNTVYLQLNSLKPEDTAVYYCNADWGPTYEIYDSWGQGTQVTVSS | low polyreactivity |
| QVQLVESGGGLVQAGGSLRLSCAASGRIFYTYAMGWYRQAPGKASELVAAITYRGGSTYYADSVKGRFTISRDIAKNTVYLQMNSLKPADTAVYYCAARPGRGPDSRWRYKYDYWGQGTQVTVSS | high polyreactivity |
| QVQLVESGGGLVQAGGSLRLSCAASGRIFYVNAMGWYRQAPGKERELVAAISGSGGRTYYADSVKGRFTISRDNAKNTVYLQMNSLKPEDTAVYYWNTQFRYPQKYDYWGQGTQVTVSS | high polyreactivity |
| QVQLVESGGGLVQAGGSLRLSCAASGRIFYVNTMGWYRQAPGKERELVATISSAASTNYADSVKGRFTISRDNAKNTVYLQMNSLKPEDTAVYYCNAAFYKEYFYWGQGTQVTVSS | low polyreactivity |
| QVQLVESGGGLVQAGGSLRLSCAASGRIFYVYAMGWYRQAPGKERELVAAISSDDGSTYYADSVKGRFTISRDNAKNTVYLQMNSLKPEVTAVYYCAKANKRGRYNYWGQGTQVTVSS | high polyreactivity |
| QVQLVESGGGLVQAGGSLRLSCAASGRIFYVYGLGWYRQEPGKERELVAAISKRGDNTYYADSVKGRFTISRDNSKNTVYLQMNSLKPEDTAVYYCKVKRYGGRSDYWGQGTQVTVSS | high polyreactivity |
| QVQLVESGGGLVQAGGSLRLSCAASGRIFYVYSMGWYRQAPGKDRELVADISRGGSTNYADSVKGRFTISRDNAKNTVYLQMNSLKPEDTAVYYCNTDGLWSAEYDYWGQGTQVTVSS | low polyreactivity |
| QVQLVESGGGLVQAGGSLRLSCAASGRIFYVYTMGWYRQAPGKERELVAAITWRGGSTYYADSVKGRFTISRDNAKNTVYLQMNSLKPEDTAVYYCATAQWVGYWDDYWGQGTQVTVSS | high polyreactivity |
| QVQLVESGGGLVQAGGSLRLSCAASGRIFYWYDMGWYRQAPGKERELVAAISTRGGSTYYADSVKGRFTISRDNAKNTVYLQMNSLKPEDTAVYYCAARANPYVLKYYYWGQGTQVTVSS | high polyreactivity |
| QVQLVESGGGLVQAGGSLRLSCAASGRIFYYNAMGWYRPAPGKERELVAAIDWSGGSTYYADSVKGRFTISRDNAKNTVYLQMNSLKPEDTAVYYCNAPFRYVPPEGSGPYDYWGQGTQVTVSS | low polyreactivity |
| QVQLVESGGGLVQAGGSLRLSCAASGRIFYYNAMGWYRPAPGKERELVATITGSGGSTYYADSVKGRFTISRDNAKNTVYLQMNSLKPEDTAVYYCNATRWYYDFYKLDYWGQGTQVTVSS | low polyreactivity |
| QVQLVESGGGLVQAGGSLRLSCAASGRIFYYNAMGWYRQAPGKERELVAGITWRGGSTYYADSVKGRFTISRDNAKNTVYVQMNSLKPEDTAVYYCAKVGWTPYGVSPYDYWGQGTQVTVSS | high polyreactivity |
| QVQLVESGGGLVQAGGSLRLSCAASGRIFYYNAMGWYRQAPGKEWELVAAISSSGTTYYADSVKGRFTISRDNAKNTVYLQMNSLKPEDTAVYYCAAGSYWSPYGQSFWPKYDYWGQGTQVTVSS | high polyreactivity |
| QVQLVESGGGLVQAGGSLRLSCAASGRIFYYNGMGWSRQAPGKERELVAAITANGGSTYYADSVKGRFTISRDNAKNTVYLQMNSLKPDDTAVYYCAARYRFGGIRRYNYWGQGTQVTVSS | high polyreactivity |
| QVQLVESGGGLVQAGGSLRLSCAASGRIFYYNGMGWYRQAPGKERELVAAIRWSGGSTRYADSVKGRFTISRDNAKNTVYLQMNSLKPEDTAVYYCAADGFYRWYPYKRYQFYYWGQGTQVTVSS | high polyreactivity |
| QVQLVESGGGLVQAGGSLRLSCAASGRIFYYNTMGWYREAPGTERELVAAISSGAGRTYYADSVKGRFTISRDNAMNTVYLQMNSLKPEDTAVYYCAARFYVIKWYDYWGQGTQVTVSS | high polyreactivity |
| QVQLVESGGGLVQAGGSLRLSCAASGRIFYYNTMGWYRQAPGKERELVAAISSTASTTYADSVKGRFTISRDNAKNTDYIQMNSLKPEDTAVYYCAADHRYHWANPRGYYYWGQGTQVTVSS | high polyreactivity |
| QVQLVESGGGLVQAGGSLRLSCAASGRIFYYNTMGWYRQSPGKERELVAAISSTASTTYADSVKGRFTISRENAKNTVYLKMNILKPEDTAVYYCAAAYSVRGRTYDSWGQGTQVTVSS | high polyreactivity |
| QVQLVESGGGLVQAGGSLRLSCAASGRIFYYSAMGWSRQAPGIERELVAAITRRGGSTYYADSVKGRVTISRDNAKNTVFLQMNSLKPEDTEVYYSAKPDRTCWLDGDYWGQGSQVTVSS | low polyreactivity |
| QVQLVESGGGLVQAGGSLRLSCAASGRIFYYYAMGWSRQAPGKERELVAGISYSGGRTYYADSVKGRFTISRDNAKNTVYLQMNSLKPEDTAVYYCAAAYRGANYGYGFDYWGQGTQVTVSS | high polyreactivity |
| QVQLVESGGGLVQAGGSLRLSCAASGRIFYYYAMGWYRPAPGKERELVAAITSGGRTYYADSVKGRFTISRDNAKNTVYLQMNSLKPEDTAVYYCAAERTYTYLGPGYEYWGQGTQVTVSS | low polyreactivity |

| Sequence | polyreactivity (PSR sort gate) |
| --- | --- |
| QVQLVESGGGLVQAGGSLRLSCAASGRIFYYYAMGWYRQAPGKERELFADITWSGGSTYYADSVKGRFTISRDNAKNTVYLQMNSLKPEDTAVNYCNAVYFNYLLEYDYWGQGTQVTVSS | high polyreactivity |
| QVQLVESGGGLVQAGGSLRLSCAASGRIFYYYAMGWYRQAPGKERELVAAITRRGGSTYYADSVKGRFTISRDNAKNTVYLQLNSLKPEDTAVYYCAKPDRTGWLDGDYWGQGTQVTVSS | low polyreactivity |
| QVQLVESGGGLVQAGGSLRLSCAASGRIFYYYAMGWYRQAPGKERELVAASSTYYADSVKGRFTISRDNAKNTVYLQMNSQKPEDTAVYYCAAVTFSYDGYDYWGPGTQVTVSS | low polyreactivity |
| QVQLVESGGGLVQAGGSLRLSCAASGRIFYYYDMGWYRQAPGKERELVAGINDDSSTYYADSVKGRFTISRDNAKNTVYLQMNSLKPEDTAVYYCNAGPSWYPSWYYYWGQGTQVTVSS | low polyreactivity |
| QVQLVESGGGLVQAGGSLRLSCAASGRIFYYYPMGWYRQAPGKERELVADITRGGGTYYADSVKGRFTISRDNAKNTVYLQMNSLKPEDTAVYYCAKGGPPESHHPYRYRFDYWGQGTQVTVSS | low polyreactivity |
| QVQLVESGGGLVQAGGSLRLSCAASGRIFYYYTMGWYRQAPGKERELVADISRGGSTYYADSVKGRFTISRDNAKNTVYLQMNSLKPEDTAVYYCNAVTRIQTSYPSNWGMMDYWGQGTQVTVSS | low polyreactivity |
| QVQLVESGGGLVQAGGSLRLSCAASGRIFYYYTMGWYRQAPGKERELVAGISRSGDRTYYADSVKGRFTISRDNGKNTVYLQMNSLKPEDTAVYYFAALYGYVHRKAFYYWGQGTQVTVSS | high polyreactivity |
| QVQLVESGGGLVQAGGSLRLSCAASGRIGKYAMGWYRQAPGKERELVATISSTGTTNYADSVKGRFTISRDNAKNTVYLKMNSLKPEDTAVYYCAARWEYVGYRRRYYRFDYWGQGTQVTVSS | high polyreactivity |
| QVQLVESGGGLVQAGGSLRLSCAASGRIICFYPMGWYRQAPGKEREFVAAIRWSGGTTYYADSVKGRFTISRDNAKNNVYLQMNSLKPEDTAVYYCAAGRAVGHSLYSRGYDYWGQGTQVTVSS | low polyreactivity |
| QVQLVESGGGLVQAGGSLRLSCAASGRIIDRNAMGWYRQAPGKERELVAAISSSGSTNYADSVKGRFTISRDNAKNTVYLQLNSLKPEDTAVYYCAARWRSVLASGTRPVSFDYWGQGTQVTVSS | low polyreactivity |
| QVQLVESGGGLVQAGGSLRLSCAASGRIIGFNAMGWYRQAPGKERELVASIRTTGGSTRYADSVKGRFTISRDNAKNTVYLQMNSLKPEDTAVYDCAARWGKTLWQYNYWGQGTQVTVSS | high polyreactivity |
| QVQLVESGGGLVQAGGSLRLSCAASGRIIGHNAMGWYRQAPGKERELVAAISSRGGSTFYADSVKGRFTISRDNAKNTVYLQKNSLKPEDTAVYYCNALGVGHSGFTKFSRYYYWGQGTQVTVSS | high polyreactivity |
| QVQLVESGGGLVQAGGSLRLSCAASGRIIGKNVMGWYRQAPGKERELVAAISKSGGSTYYADSVKGRFTISRDNAKNTVYLQMNSLKPEDTAVYYCAAKYYYHWHRQGYDYWGQGTQVTVSS | high polyreactivity |
| QVQLVESGGGLVQAGGSLRLSCAASGRIIGKYDMGWYRQAPGTERELVAAIRYNGGRTYYADSVKGRFTISRDNAKNTVYLQMNRLKPEDNAVYYCATRTYRVDPEFGYWGQGTEVTVSS | high polyreactivity |
| QVQLVESGGGLVQAGGSLRLSCAASGRIIGLYAMGWYRQAPGKEMELVAAISSAGSTYYADSVKGRFTISRDNAKNTVYLQMNSLKTEDTAVYYCDKSRYRGYDYWGQGTQVTVSS | low polyreactivity |
| QVQLVESGGGLVQAGGSLRLSCAASGRIIGNYAMGWYRQAPGKERELVAAISNGGSTNYADSVKGRFTISRDNAKNTVYLQMNSLKPEDTAVYYCNADQWAVIWGYMVLDFYYWGQGTQVTVSS | low polyreactivity |
| QVQLVESGGGLVQAGGSLRLSCAASGRIIGRYAMGWYRQAPGKEREFVAAISGSGGSTYYADSVKGRFTISRDNAKNTVYLQMNSLKPEDTAVYYCNALSVPDYDYWGQGTQVTVSS | high polyreactivity |
| QVQLVESGGGLVQAGGSLRLSCAASGRIIGYYAMGWYRQAPGKERELVAGIDWSGGNTYYADSVKGRFTISRDNAKNTVYLQMNSLKPEDTAVYYCNTEGGRDTAWYDYWGQGTQVTVSS | low polyreactivity |
| QVQLVESGGGLVQAGGSLRLSCAASGRIIIYKAMGWYRQAPGKERQLVAAINRSGVSTHYADSVKGRFTISRDNAKNTVYLQMNSLKPEDTAVYYCARTVYGARSYDYWGQGTQVTVSS | low polyreactivity |
| QVQLVESGGGLVQAGGSLRLSCAASGRIIKFYAMGWYRQAPGKERELVARISRSGGRTYYADSVKGRFTISRDNAKNTVYLQMNSLKPEDTAVYYCAADTQSVATYDYWGQGTQVTVSS | low polyreactivity |
| QVQLVESGGGLVQAGGSLRLSCAASGRIINSNAMGWYRQAPGKERELVAAISTTGGRTYYADSVKGRFTISRDNAKNTVYLQMNSLKPEDTAVYYCNRLYRYLVWPAGEYDYWGQGTQVTVSS | high polyreactivity |
